Square brackets hold non-standard residues; d marks the D form. Ends that are not written are not given here. Hyp = O=C(O)[C@@H]1C[C@@H](O)CN1
Assays:
[1] = target: HUI77, murine IgM anti-denatured-collagen monoclonal antibody; assay: competition ELISA on coated dn-collagen IV
[2] = target: D93, recombinant humanized IgG1 kappa antibody targeting denatured-collagen; assay: competition ELISA on coated human dn-collagen IV
[3] = target: HUI77, murine IgM anti-denatured-collagen monoclonal antibody; assay: competition ELISA on coated dn-collagen IV; * separate assay
[4] = target: D93, recombinant humanized IgG1 kappa antibody targeting denatured-collagen; assay: competition ELISA on coated human dn-collagen IV; * separate assay

Chain of D93, recombinant humanized IgG1 kappa antibody targeting denatured-collagen (heavy, as listed by the source, chain 1 of 2): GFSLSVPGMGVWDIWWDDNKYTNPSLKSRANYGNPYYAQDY
Chain of D93, recombinant humanized IgG1 kappa antibody targeting denatured-collagen (light, as listed by the source, chain 2 of 2): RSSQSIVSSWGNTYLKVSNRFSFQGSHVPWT

## PGP[Hyp]GP[Hyp]GPY [synthetic peptide No. 4, … (SEQ ID NO: 28)]
[1]
  % inhibition of HUI77 binding to dn-collagen IV, peptide 10 µM: 7%
  % inhibition of HUI77 binding to dn-collagen IV, peptide 100 µM: 16%
  % inhibition of HUI77 binding to dn-collagen IV, peptide 1000 µM: 86.5%
[2]
  % inhibition of D93 binding to dn-collagen IV, peptide 1 µM: 33.5%
  % inhibition of D93 binding to dn-collagen IV, peptide 10 µM: 83%
  % inhibition of D93 binding to dn-collagen IV, peptide 100 µM: 93.5%
  % inhibition of D93 binding to dn-collagen IV, peptide 1000 µM: 93.5%

B1: synthetic peptide No. 15, GPPGPPG (SEQ ID NO: 32) (peptide)
peptide: GPXGPXG
modifications: contains hydroxyproline ('where P is hydroxyproline'); positions marked in the tables but lost in this text
[1]
  % inhibition of HUI77 binding to dn-collagen IV, peptide 10 µM: 6%
  % inhibition of HUI77 binding to dn-collagen IV, peptide 100 µM: 7.5%
  % inhibition of HUI77 binding to dn-collagen IV, peptide 1000 µM: 77%
[2]
  % inhibition of D93 binding to dn-collagen IV, peptide 1 µM: 8%
  % inhibition of D93 binding to dn-collagen IV, peptide 10 µM: 17%
  % inhibition of D93 binding to dn-collagen IV, peptide 100 µM: 64%
  % inhibition of D93 binding to dn-collagen IV, peptide 1000 µM: 92.5%

## GP[Hyp]GP[Hyp]GPY [synthetic peptide No. 3, … (SEQ ID NO: 30)]
[1]
  % inhibition of HUI77 binding to dn-collagen IV, peptide 10 µM: 8.5%
  % inhibition of HUI77 binding to dn-collagen IV, peptide 100 µM: 12%
  % inhibition of HUI77 binding to dn-collagen IV, peptide 1000 µM: 78%
[3]
  % inhibition of HUI77 binding to dn-collagen IV, peptide 100 µM: 0%
  % inhibition of HUI77 binding to dn-collagen IV, peptide 1000 µM: 63%
[2]
  % inhibition of D93 binding to dn-collagen IV, peptide 1 µM: 33%
  % inhibition of D93 binding to dn-collagen IV, peptide 10 µM: 82.5%
  % inhibition of D93 binding to dn-collagen IV, peptide 100 µM: 94%
  % inhibition of D93 binding to dn-collagen IV, peptide 1000 µM: 94%
[4]
  % inhibition of D93 binding to dn-collagen IV, peptide 10 µM: 79.9%
  % inhibition of D93 binding to dn-collagen IV, peptide 100 µM: 90.3%

## GPPG (also: hydroxyproline marking, if any, lost) [synthetic peptide No. 22, GPPG (SEQ ID NO: 35)]
[1]
  % inhibition of HUI77 binding to dn-collagen IV, peptide 10 µM: 2.5%
  % inhibition of HUI77 binding to dn-collagen IV, peptide 100 µM: 8%
  % inhibition of HUI77 binding to dn-collagen IV, peptide 1000 µM: 3.5%
[2]
  % inhibition of D93 binding to dn-collagen IV, peptide 1 µM: 7%
  % inhibition of D93 binding to dn-collagen IV, peptide 10 µM: 6%
  % inhibition of D93 binding to dn-collagen IV, peptide 100 µM: 3.5%
  % inhibition of D93 binding to dn-collagen IV, peptide 1000 µM: 7.5%

## LPGP[Hyp]GP[Hyp]GP [synthetic peptide No. 5, … (SEQ ID NO: 20)]
[1]
  % inhibition of HUI77 binding to dn-collagen IV, peptide 10 µM: 10%
  % inhibition of HUI77 binding to dn-collagen IV, peptide 100 µM: 14%
  % inhibition of HUI77 binding to dn-collagen IV, peptide 1000 µM: 73%
[2]
  % inhibition of D93 binding to dn-collagen IV, peptide 1 µM: 12%
  % inhibition of D93 binding to dn-collagen IV, peptide 10 µM: 41.5%
  % inhibition of D93 binding to dn-collagen IV, peptide 100 µM: 89%
  % inhibition of D93 binding to dn-collagen IV, peptide 1000 µM: 92.5%

## [Hyp]GAKGLPGP[Hyp]GP[Hyp]GPY [synthetic peptide No. 12, … (SEQ ID NO: 2)]
[1]
  % inhibition of HUI77 binding to dn-collagen IV, peptide 10 µM: 7.5%
  % inhibition of HUI77 binding to dn-collagen IV, peptide 100 µM: 18%
  % inhibition of HUI77 binding to dn-collagen IV, peptide 1000 µM: 86.5%
[2]
  % inhibition of D93 binding to dn-collagen IV, peptide 1 µM: 30%
  % inhibition of D93 binding to dn-collagen IV, peptide 10 µM: 81%
  % inhibition of D93 binding to dn-collagen IV, peptide 100 µM: 93.5%
  % inhibition of D93 binding to dn-collagen IV, peptide 1000 µM: 93.5%

## LPGFPG (also: hydroxyproline marking, if any, lost) [synthetic peptide No. 24, LPGFPG (SEQ ID NO: 38)]
[3]
  % inhibition of HUI77 binding to dn-collagen IV, peptide 10 µM: 10.2%
  % inhibition of HUI77 binding to dn-collagen IV, peptide 100 µM: 0%
  % inhibition of HUI77 binding to dn-collagen IV, peptide 1000 µM: 3.7%
[4]
  % inhibition of D93 binding to dn-collagen IV, peptide 1 µM: 5.4%
  % inhibition of D93 binding to dn-collagen IV, peptide 10 µM: 7.8%
  % inhibition of D93 binding to dn-collagen IV, peptide 100 µM: 8.3%
  % inhibition of D93 binding to dn-collagen IV, peptide 1000 µM: 11.6%

## CTWPRHHTTDALL [non-collagen control peptide No. 6, … (SEQ ID NO: 39)]
[1]
  % inhibition of HUI77 binding to dn-collagen IV, peptide 10 µM: 6.5%
  % inhibition of HUI77 binding to dn-collagen IV, peptide 100 µM: 6.5%
  % inhibition of HUI77 binding to dn-collagen IV, peptide 1000 µM: 6.5%
[3]
  % inhibition of HUI77 binding to dn-collagen IV, peptide 1000 µM: 11.1%
[2]
  % inhibition of D93 binding to dn-collagen IV, peptide 1 µM: 4.5%
  % inhibition of D93 binding to dn-collagen IV, peptide 10 µM: 1%
  % inhibition of D93 binding to dn-collagen IV, peptide 100 µM: 0%
  % inhibition of D93 binding to dn-collagen IV, peptide 1000 µM: 3.5%
[4]
  % inhibition of D93 binding to dn-collagen IV, peptide 1000 µM: 4.9%

## LPGP[Hyp]GP[Hyp]G [synthetic peptide No. 20, … (SEQ ID NO: 21)]
[1]
  % inhibition of HUI77 binding to dn-collagen IV, peptide 10 µM: 6.5%
  % inhibition of HUI77 binding to dn-collagen IV, peptide 100 µM: 18%
  % inhibition of HUI77 binding to dn-collagen IV, peptide 1000 µM: 86%
[2]
  % inhibition of D93 binding to dn-collagen IV, peptide 1 µM: 13%
  % inhibition of D93 binding to dn-collagen IV, peptide 10 µM: 35.5%
  % inhibition of D93 binding to dn-collagen IV, peptide 100 µM: 85.5%
  % inhibition of D93 binding to dn-collagen IV, peptide 1000 µM: 92.5%

## GPPGPPG (also: hydroxyproline at marked P positions, if any, marking lost) [synthetic peptide No. 23, GPPGPPG (SEQ ID NO: 33)]
[1]
  % inhibition of HUI77 binding to dn-collagen IV, peptide 10 µM: 1.5%
  % inhibition of HUI77 binding to dn-collagen IV, peptide 100 µM: 2%
  % inhibition of HUI77 binding to dn-collagen IV, peptide 1000 µM: 1%
[2]
  % inhibition of D93 binding to dn-collagen IV, peptide 1 µM: 5%
  % inhibition of D93 binding to dn-collagen IV, peptide 10 µM: 4.5%
  % inhibition of D93 binding to dn-collagen IV, peptide 100 µM: 1.5%
  % inhibition of D93 binding to dn-collagen IV, peptide 1000 µM: 6.5%

## PGP[Hyp]GP[Hyp]GP [synthetic peptide No. 1, … (SEQ ID NO: 29)]
[1]
  % inhibition of HUI77 binding to dn-collagen IV, peptide 10 µM: 10.5%
  % inhibition of HUI77 binding to dn-collagen IV, peptide 100 µM: 12.5%
  % inhibition of HUI77 binding to dn-collagen IV, peptide 1000 µM: 63%
[2]
  % inhibition of D93 binding to dn-collagen IV, peptide 1 µM: 11.5%
  % inhibition of D93 binding to dn-collagen IV, peptide 10 µM: 40.5%
  % inhibition of D93 binding to dn-collagen IV, peptide 100 µM: 87.5%
  % inhibition of D93 binding to dn-collagen IV, peptide 1000 µM: 93.5%

## L[Hyp]GS[Hyp]G [synthetic peptide No. 10, LPGSPG (SEQ ID NO: 26)]
[1]
  % inhibition of HUI77 binding to dn-collagen IV, peptide 10 µM: 8%
  % inhibition of HUI77 binding to dn-collagen IV, peptide 100 µM: 10.5%
  % inhibition of HUI77 binding to dn-collagen IV, peptide 1000 µM: 8.5%
[2]
  % inhibition of D93 binding to dn-collagen IV, peptide 1 µM: 9.5%
  % inhibition of D93 binding to dn-collagen IV, peptide 10 µM: 3.5%
  % inhibition of D93 binding to dn-collagen IV, peptide 100 µM: 2.5%
  % inhibition of D93 binding to dn-collagen IV, peptide 1000 µM: 13.5%

## F[Hyp]GP[Hyp]GPDGL[Hyp]GSMGP[Hyp]G [synthetic peptide No. 7, … (SEQ ID NO: 36)]
[1]
  % inhibition of HUI77 binding to dn-collagen IV, peptide 10 µM: 4.5%
  % inhibition of HUI77 binding to dn-collagen IV, peptide 100 µM: 9%
  % inhibition of HUI77 binding to dn-collagen IV, peptide 1000 µM: 62%
[2]
  % inhibition of D93 binding to dn-collagen IV, peptide 1 µM: 11%
  % inhibition of D93 binding to dn-collagen IV, peptide 10 µM: 43%
  % inhibition of D93 binding to dn-collagen IV, peptide 100 µM: 89.5%
  % inhibition of D93 binding to dn-collagen IV, peptide 1000 µM: 93.5%

## [Hyp]GAKGLPGP [synthetic peptide No. 13, … (SEQ ID NO: 17)]
[1]
  % inhibition of HUI77 binding to dn-collagen IV, peptide 10 µM: 8%
  % inhibition of HUI77 binding to dn-collagen IV, peptide 100 µM: 10.5%
  % inhibition of HUI77 binding to dn-collagen IV, peptide 1000 µM: 10%
[2]
  % inhibition of D93 binding to dn-collagen IV, peptide 1 µM: 11%
  % inhibition of D93 binding to dn-collagen IV, peptide 10 µM: 6%
  % inhibition of D93 binding to dn-collagen IV, peptide 100 µM: 4%
  % inhibition of D93 binding to dn-collagen IV, peptide 1000 µM: 11.5%

## L[Hyp]GT[Hyp]G [synthetic peptide No. 8, LPGTPG (SEQ ID NO: 27)]
[1]
  % inhibition of HUI77 binding to dn-collagen IV, peptide 10 µM: 3.5%
  % inhibition of HUI77 binding to dn-collagen IV, peptide 100 µM: 4.5%
  % inhibition of HUI77 binding to dn-collagen IV, peptide 1000 µM: 6%
[2]
  % inhibition of D93 binding to dn-collagen IV, peptide 1 µM: 7%
  % inhibition of D93 binding to dn-collagen IV, peptide 10 µM: 2%
  % inhibition of D93 binding to dn-collagen IV, peptide 100 µM: 4.5%
  % inhibition of D93 binding to dn-collagen IV, peptide 1000 µM: 24%

B2: synthetic peptide No. 17, GPPGPPGP (SEQ ID NO: 31) (peptide)
peptide: GPXGPXGP
modifications: hydroxyproline at the P positions marked in Tables 13 and 14; marking lost in this text
[1]
  % inhibition of HUI77 binding to dn-collagen IV, peptide 10 µM: 7.5%
  % inhibition of HUI77 binding to dn-collagen IV, peptide 100 µM: 12%
  % inhibition of HUI77 binding to dn-collagen IV, peptide 1000 µM: 44%
[2]
  % inhibition of D93 binding to dn-collagen IV, peptide 1 µM: 9.5%
  % inhibition of D93 binding to dn-collagen IV, peptide 10 µM: 21%
  % inhibition of D93 binding to dn-collagen IV, peptide 100 µM: 77%
  % inhibition of D93 binding to dn-collagen IV, peptide 1000 µM: 92.5%

## LPGFPGC (also: hydroxyproline marking, if any, lost) [synthetic peptide No. 9, LPGFPGC (SEQ ID NO: 37)]
[1]
  % inhibition of HUI77 binding to dn-collagen IV, peptide 10 µM: 7%
  % inhibition of HUI77 binding to dn-collagen IV, peptide 100 µM: 7.5%
  % inhibition of HUI77 binding to dn-collagen IV, peptide 1000 µM: 8.5%
[2]
  % inhibition of D93 binding to dn-collagen IV, peptide 1 µM: 8%
  % inhibition of D93 binding to dn-collagen IV, peptide 10 µM: 3.5%
  % inhibition of D93 binding to dn-collagen IV, peptide 100 µM: 1%
  % inhibition of D93 binding to dn-collagen IV, peptide 1000 µM: 6.5%

From US20080008707A1, “Denatured collagen peptides and uses thereof” (Cell-Matrix, Inc., priority 2006, published 2008)
